Experimental data as given in the RNAGym collection of RNA variant scans (doi:10.7554/elife.80360).

B1: HDV Ribozyme (parent)
chain: GGCCGGCAUGGUCCCAGCCUCCUCGCUGGCGCCGGCUGGGCAACAUUCCGAGGGGACCGUCCCCUCGGUAAUGGCGAAUGGGACCCA

Variants of: B1
Experiment: self-cleavage, relative activity (ratio to wild type); higher = more cleavage; co-transcriptional

Variant	self-cleavage
G25C A71U	0.19
G25C U46G	0
G25C U46C	0.0875
G25C G40A	0.0386
G25A G59C	0.332
G25A C57U	0.232
G25A C57G	0.224
G25A C57A	0.194
C24G U27C	0.0791
C24G U27G	0.0536
C24G G59C	0.0923
C24G G59U	0.147
C24G G59A	0.0955
C24G G55C	0.0656
C24G G55U	0.16
G25C A83G	0.0302
G25C A83C	0.0489
G25C C44U	0.259
G25C C61U	0.0354
G25C C61G	0.175
G25C C61A	0.201
C24U U46G	0.415
C24U U46C	0.268
C24U U46A	0.53

Variant	self-cleavage
G25C C84A	0.0489
G25C G76U	0.0852
G25C G76C	0.0723
G25C G76A	0.0875
C24U G40C	0.138
G25C	0.0909
G25A	0.24
G25U	0.177
G25C G28A	0.0297
C24U U47A	0.658
C24U U47G	0.266
G25A G80U	0.0923
G25A G80A	0.126
G25A G80C	0.12
C24U C64A	0.848
C24U C64U	0.511
G25C A78C	0.0773
G25A A42G	0.158
G25C A51G	0.237
G25A G52U	0.169
G25C C32G	0.104
G25C C32U	0.0755
G25C C66A	0.0627
C24U C57A	0.831

Variant	self-cleavage
C24U C57G	0.779
C24U C57U	0.538
G25A C85G	0.237
G25A C85A	0.237
G25A C85U	0.32
G25A C30G	0
G25A C30A	0.126
C24U C44A	0.277
C24U C84G	0.157
C24U C84A	0.543
C24G U60G	0.0755
C24G U72A	0.0437
C24G U72G	0
C24G U72C	0.111
C24U A78G	0.397
G25A U27G	0.133
G25A U27C	0.538
G25C G52C	0.166
G25C G52U	0.141
C24U A71U	0.587
C24U A71G	0.648
G25A U60G	0.125
G25C C58U	0.0739
G25C C58A	0.104

Variant	self-cleavage
G25A U46A	0
G25A U46C	0.0831
G25A U46G	0.262
G25A U65A	0.122
G25A U65G	0.269
C24U A77C	0.119
G25A A70G	0.0791
G25C G50C	0.156
C24U G52A	0.554
C24G G74U	0.0554
G25A A45G	0.332
G25C C48A	0.0415
G25C G74A	0.0639
G25C G74C	0
C24G U65G	0.233
C24G U65A	0.208
C24U C61U	0.718
C24U C61A	0.591
C24G G67A	0.119
C24G G67C	0.026
C24G G68U	0.0191
C24G G68C	0.126
G25A G53U	0.179
G25A G38A	0.0536

Variant	self-cleavage
G25C C75G	0.185
G25C C75U	0
G25A C62A	0.168
C24U G28U	0.119
G25C A45U	0.128
G25C A45C	0.0875
G25A U72G	0.104
G25A U72C	0.227
C24U A51G	0.415
G25C G29A	0.155
C24U C36A	0.0256
C24G U46C	0.106
C24G U46A	0.0326
C24G U46G	0
C24G U37A	0.0674
C24G U37G	0
G25C G31C	0.0978
G25C G54U	0.0652
G25C G54A	0.219
G25C A42C	0.128
G25C A42G	0
G25C A42U	0
G25A A83G	0.151
G25A A83C	0.146

Variant	self-cleavage
C24G G81U	0.0707
G25C C33G	0.201
G25C G68C	0.0639
G25A A51C	0.213
G25A A51U	0.318
G25C U65C	0.0536
C24U A43C	0.0739
C24U G25U	0.138
G25A C61G	0.185
G25A C61U	0.225
G25C C63U	0.0739
G25C C63A	0.0755
G25A G31U	0.0536
G25A G31A	0.0773
G25A C36U	0.153
G25C U47G	0.119
C24U C26A	0.955
G25A A71C	0.185
G25A A71U	0.0369
C24U G82U	0.0692
C24U G82C	0.163
G25C U37G	0.0519
G25A C64A	0.115
G25A G76U	0.3

Variant	self-cleavage
G25A G76A	0.203
C24U C30U	0.142
C24U C30A	0.0482
C24U C30G	0.122
C24U G80U	0.102
C24U G80A	0.0525
C24U G38U	0.115
C24U G38C	0.0554
G25A C58U	0.248
G25C U69G	0
G25C U69A	0.166
G25A U47C	0.107
G25C G35C	0.115
C24U A87U	0.696
G25A C33U	0.0911
C24U G29C	0.138
C24U G29U	0.0594
G25C A43C	0.0554
C24U A42G	0.0923
G25A C86U	0.248
G25C G39C	0
G25C G39A	0.119
G25C G39U	0.0978
